In patent publication US20110312897:

Test system: C-terminally 6xHIS tagged, full-length recombinant histone H3

Substance	H3 cleavage assay with pre-activated enzyme, immunoblot with HIS and H3.cs1 antibodies
recombinant Cathepsin B (R&D Systems Cat No. BAF965)	Cathepsin B cleaves rH3 with a distinct pattern from Cathepsins K or L and does not significantly produce the H3.cs1 epitope
recombinant Cathepsin K (Calbiochem Cat. No. 342001)	Cathepsin K produces a similar pattern to Cathepsin L under these assay conditions
